The results in this text go back to patent publication US12053530B2, “Plectin-1 binding antibodies and uses thereof” (ZIELBIO, INC., priority 2017, dated 2024).

The target in this experiment is plectin-1 (human recombinant protein) (Homo sapiens, UniProt Q15149). Description: Affinity of anti-plectin-1 antibodies (FIGS. 1A-1B). In kind it is binding. To be noted: human recombinant protein and pancreatic cell lines. An excerpt:
FIGS. 1A-1B show representative data for affinity and specificity of an anti-plec1 antibody on human recombinant protein (FIG. 1A) and human (YapC and L3.6pl) and mouse (Han14.3) pancreatic cell lines (FIG. 1B).

Chain of plectin-1 (human recombinant protein) (Q15149 whole entry): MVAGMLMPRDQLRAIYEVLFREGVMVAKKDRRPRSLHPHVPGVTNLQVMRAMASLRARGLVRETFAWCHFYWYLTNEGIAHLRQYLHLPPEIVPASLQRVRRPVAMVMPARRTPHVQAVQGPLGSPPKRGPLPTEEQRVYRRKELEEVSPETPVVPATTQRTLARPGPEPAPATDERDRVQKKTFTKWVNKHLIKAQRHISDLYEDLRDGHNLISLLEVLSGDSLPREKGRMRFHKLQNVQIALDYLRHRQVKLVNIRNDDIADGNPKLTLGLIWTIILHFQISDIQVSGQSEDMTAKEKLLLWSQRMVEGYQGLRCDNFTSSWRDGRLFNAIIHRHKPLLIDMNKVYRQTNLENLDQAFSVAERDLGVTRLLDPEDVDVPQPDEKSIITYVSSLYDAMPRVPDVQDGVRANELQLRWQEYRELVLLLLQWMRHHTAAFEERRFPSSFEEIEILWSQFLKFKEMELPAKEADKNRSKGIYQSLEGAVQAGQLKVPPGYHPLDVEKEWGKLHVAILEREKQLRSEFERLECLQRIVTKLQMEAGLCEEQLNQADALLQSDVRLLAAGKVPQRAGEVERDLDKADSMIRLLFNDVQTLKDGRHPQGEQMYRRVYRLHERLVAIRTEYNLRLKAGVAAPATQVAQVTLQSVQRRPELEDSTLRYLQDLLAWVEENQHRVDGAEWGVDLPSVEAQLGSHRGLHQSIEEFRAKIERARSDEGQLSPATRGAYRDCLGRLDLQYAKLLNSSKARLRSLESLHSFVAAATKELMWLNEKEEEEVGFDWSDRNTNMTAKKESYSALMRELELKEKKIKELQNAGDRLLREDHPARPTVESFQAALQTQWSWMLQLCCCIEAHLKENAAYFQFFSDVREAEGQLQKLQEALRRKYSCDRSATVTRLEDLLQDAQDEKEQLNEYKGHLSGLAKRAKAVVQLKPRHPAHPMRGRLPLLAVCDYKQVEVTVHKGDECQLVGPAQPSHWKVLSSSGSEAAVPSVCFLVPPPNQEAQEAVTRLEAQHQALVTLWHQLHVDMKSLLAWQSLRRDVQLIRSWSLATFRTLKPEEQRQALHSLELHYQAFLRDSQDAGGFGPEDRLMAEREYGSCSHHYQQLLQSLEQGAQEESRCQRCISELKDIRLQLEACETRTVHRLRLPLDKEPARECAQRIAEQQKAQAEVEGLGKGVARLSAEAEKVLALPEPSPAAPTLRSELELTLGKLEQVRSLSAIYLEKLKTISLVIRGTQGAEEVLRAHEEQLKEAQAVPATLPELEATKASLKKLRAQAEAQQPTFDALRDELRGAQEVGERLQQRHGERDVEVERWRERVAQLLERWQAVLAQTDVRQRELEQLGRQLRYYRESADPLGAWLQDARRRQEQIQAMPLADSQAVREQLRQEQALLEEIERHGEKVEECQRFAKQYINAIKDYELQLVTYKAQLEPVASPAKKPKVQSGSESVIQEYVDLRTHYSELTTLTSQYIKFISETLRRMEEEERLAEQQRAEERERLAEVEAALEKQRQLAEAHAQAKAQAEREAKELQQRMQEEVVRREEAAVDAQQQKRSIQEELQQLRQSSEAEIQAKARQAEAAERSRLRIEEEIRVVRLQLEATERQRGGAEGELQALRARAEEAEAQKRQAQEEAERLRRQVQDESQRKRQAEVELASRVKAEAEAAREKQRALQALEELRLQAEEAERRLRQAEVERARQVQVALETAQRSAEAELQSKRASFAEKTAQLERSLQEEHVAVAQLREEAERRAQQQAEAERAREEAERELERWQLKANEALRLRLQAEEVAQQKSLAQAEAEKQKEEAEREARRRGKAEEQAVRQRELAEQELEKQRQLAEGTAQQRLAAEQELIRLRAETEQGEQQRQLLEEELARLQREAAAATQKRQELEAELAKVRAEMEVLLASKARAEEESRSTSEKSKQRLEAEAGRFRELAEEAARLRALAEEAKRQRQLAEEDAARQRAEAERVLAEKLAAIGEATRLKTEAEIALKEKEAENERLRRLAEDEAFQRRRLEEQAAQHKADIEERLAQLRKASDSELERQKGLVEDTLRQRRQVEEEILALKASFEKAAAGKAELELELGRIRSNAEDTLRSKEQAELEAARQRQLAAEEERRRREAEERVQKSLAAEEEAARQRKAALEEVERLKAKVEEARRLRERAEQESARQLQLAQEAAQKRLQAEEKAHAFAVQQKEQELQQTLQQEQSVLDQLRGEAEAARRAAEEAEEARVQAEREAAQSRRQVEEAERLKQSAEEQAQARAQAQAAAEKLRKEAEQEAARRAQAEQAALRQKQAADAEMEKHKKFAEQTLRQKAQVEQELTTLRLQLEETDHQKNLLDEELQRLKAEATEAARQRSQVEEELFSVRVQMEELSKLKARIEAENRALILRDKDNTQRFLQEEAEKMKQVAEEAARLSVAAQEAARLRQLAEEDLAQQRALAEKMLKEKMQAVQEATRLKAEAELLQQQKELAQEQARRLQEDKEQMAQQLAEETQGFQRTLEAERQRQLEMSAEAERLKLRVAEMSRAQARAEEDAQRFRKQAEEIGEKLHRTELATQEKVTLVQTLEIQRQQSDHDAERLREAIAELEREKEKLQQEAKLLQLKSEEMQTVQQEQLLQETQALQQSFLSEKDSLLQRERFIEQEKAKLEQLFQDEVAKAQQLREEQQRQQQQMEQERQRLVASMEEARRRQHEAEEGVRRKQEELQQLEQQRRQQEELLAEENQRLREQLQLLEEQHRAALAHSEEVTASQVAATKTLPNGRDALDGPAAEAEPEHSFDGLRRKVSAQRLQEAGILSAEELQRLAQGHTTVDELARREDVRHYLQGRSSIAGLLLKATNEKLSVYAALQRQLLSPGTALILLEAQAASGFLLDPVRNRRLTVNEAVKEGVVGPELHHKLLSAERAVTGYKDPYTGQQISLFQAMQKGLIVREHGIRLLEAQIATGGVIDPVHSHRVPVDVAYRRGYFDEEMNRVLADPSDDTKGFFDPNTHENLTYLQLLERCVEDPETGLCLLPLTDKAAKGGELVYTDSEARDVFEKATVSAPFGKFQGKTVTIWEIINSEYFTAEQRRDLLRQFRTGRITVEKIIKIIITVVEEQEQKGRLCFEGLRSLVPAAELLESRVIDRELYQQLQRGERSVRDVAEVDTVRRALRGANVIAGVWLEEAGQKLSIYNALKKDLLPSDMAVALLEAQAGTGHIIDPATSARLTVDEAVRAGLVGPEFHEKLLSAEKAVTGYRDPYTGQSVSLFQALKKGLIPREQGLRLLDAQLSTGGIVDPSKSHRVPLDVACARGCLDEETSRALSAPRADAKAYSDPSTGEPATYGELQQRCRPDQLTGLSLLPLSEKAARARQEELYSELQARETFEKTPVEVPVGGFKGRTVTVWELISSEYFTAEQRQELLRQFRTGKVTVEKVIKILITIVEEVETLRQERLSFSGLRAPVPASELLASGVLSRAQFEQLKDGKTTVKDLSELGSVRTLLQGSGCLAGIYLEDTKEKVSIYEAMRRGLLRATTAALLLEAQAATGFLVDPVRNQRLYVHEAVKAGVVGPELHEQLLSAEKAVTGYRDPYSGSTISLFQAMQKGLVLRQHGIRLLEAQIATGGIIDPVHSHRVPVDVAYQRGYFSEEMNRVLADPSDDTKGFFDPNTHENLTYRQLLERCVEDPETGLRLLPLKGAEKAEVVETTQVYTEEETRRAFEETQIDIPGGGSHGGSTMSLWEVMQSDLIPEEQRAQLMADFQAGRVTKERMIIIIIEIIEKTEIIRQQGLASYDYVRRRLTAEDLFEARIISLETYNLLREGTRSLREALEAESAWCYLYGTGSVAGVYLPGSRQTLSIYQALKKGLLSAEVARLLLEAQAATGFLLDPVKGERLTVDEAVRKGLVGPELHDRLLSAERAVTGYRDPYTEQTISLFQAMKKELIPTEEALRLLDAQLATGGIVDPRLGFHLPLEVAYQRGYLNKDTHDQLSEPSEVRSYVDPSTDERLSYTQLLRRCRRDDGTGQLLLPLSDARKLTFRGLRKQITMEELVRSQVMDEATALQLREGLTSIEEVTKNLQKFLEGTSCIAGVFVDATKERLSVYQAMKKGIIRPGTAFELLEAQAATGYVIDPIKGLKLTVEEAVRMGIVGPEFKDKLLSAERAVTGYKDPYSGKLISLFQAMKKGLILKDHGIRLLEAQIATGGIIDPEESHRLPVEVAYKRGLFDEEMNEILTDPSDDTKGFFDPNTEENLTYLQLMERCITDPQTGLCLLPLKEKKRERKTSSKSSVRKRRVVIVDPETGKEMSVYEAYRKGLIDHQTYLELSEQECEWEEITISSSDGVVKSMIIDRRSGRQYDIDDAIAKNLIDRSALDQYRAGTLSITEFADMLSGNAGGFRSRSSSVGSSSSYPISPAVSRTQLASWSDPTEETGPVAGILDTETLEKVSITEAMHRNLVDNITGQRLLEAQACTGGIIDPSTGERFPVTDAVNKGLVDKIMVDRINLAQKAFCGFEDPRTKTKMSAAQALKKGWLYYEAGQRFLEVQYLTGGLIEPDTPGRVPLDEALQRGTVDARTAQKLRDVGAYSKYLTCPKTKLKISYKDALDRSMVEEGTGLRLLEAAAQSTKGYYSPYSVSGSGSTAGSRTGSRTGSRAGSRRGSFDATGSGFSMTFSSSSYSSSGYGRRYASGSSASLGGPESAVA

B1: Pab2: anti-plectin-1 antibody; heavy chain variable region SEQ ID NO: 23, light chain variable region SEQ ID NO: 45 (antibody, V domains shown)
VH: EVQLVESGGDLVKPGGSLKLSCAASGFTFSRYGMSWVRQTPDKRLEWVATISIGGTYTYYPDSMKGRFTISRDNAKNTLYLQMSSLKSEDTAMYYCARRGYGNYSYYGMDYWGQGTSVTVSS
VL: DIVMTQAAFSNPVTLGTSASISCRSSKSLLHSNGITYLYWYLQKPGQSPQLLIYQMSNLASGVPDRFSSSGSGTDFTLRISRVEAEDVGVYYCAQNLELPLTFGAGTKLELK
With B1, the “affinity among anti-plectin-1 antibodies tested” value is listed as “highest affinity”.
